Experimental findings from the DeepSol protein solubility set are described below.

A short description of this data set: soluble on expression in E. coli; label from the status in PepcDB or PDB records.
“MSLADWQNLDPEAAREAEKYENPIPSRELILAHLSERGAPATRSQLLDEFGLAGEEPEEALRRRLRAMERDGQLIYTRRGAYAPVDKLDLIRGRISGHRDGFGFLIPDDGSDDLFLSPTQMRLVFDGDRALARVSGHDRRGRREGQLVEVIERAHEIVVGRYFEESGIGVVVADNPKIQQEVLIPPGKAGKARHNQFVQVRIEQWPSIHRQAQGEIVEVLGDYMAPGMEIEVALRSYDIPHVWPAAVEKEAAKLKPEVAEKDKEKRVDLRQVPFVTIDGEDARDFDDAVYAEAKRGGGWRLFVAIADVSHYVKVGSALDEEAARRGNSVYFPERVIPMLPEVLSNGLCSLNPLVDRLAMVCEMTLSKAGKLTGYQFYEAVIHSHARLTYTKVSQLLEHPDSVEAENLRQQLPGVVPHLQQLYALYKALLAGRHVRGAIDFETQETRIVFGADRKISEIRPTQRNDAHRLIEECMLCANVATARFLQKHAIPALYRVHDGPPQEKLNNLRQFLGELGLSLGRGKAAPTPGDYQELLEKIHDRADFRLIQTVMLRSLSQAVYSPDNNGHFGLNYDAYTHFTSPIRRYPDLLVHRAIRSVIRSKAETPHVQRAGAASMPKARIYPYDELRLDQLGEQCSMTERRADEATRDVTNWLKCEYMRERVGETFPGVITAVTGFGLFVELTDIFVEGLVHVTALPGDYYHFDAVHHRLSGERTGRSFRLGDTTEVVVARVDLDERKIDFELAGNVLSAPIGRKKRNGDKSANAGKAPKGRKGASVPEVDLEPALASPDAAVVPRRKAGKVQALPPVAPELLAQAAEMLGNTDVRKSREVKQALLAEARVGGKDKGGKKGKVVPAGKSAKGKAKDGKPAAAAKPGKPTKHRKGPSKPKADNAPAATGARKRKAKSEGHHHHHH”: the “soluble on expression in E. coli” value was “not soluble”.

Consider “MCPILWTRNGSHCYYFSMEKKDWNSSLKFCADKGSHLLTFPDNQGVKLFGEYLGQDFYWIGLRNIDGWRWEGGPALSLRILTNSLIQRCGAIHRNGLQASSCEVALQWICKKVLY”, for which the “soluble on expression in E. coli” value is reported as “soluble”.

On to “MGSSHHHHHHSSGLVPRGSHMQQKLTSPDNNLVMTFQVDSKGAPTYELTYKNKVVIKPSTLGLELKKEDNTRTDFDWVDRRDLTKLDSKTNLYDGFEVKDTQTATFDETWQPVWGEEKEIRNHYNELAVTLYQPMNDRSIVIRFRLFNDGLGFRYEFPQQKSLNYFVIKEEHSQFGMNGDHIAFWIPGDYDTQEYDYTISRLSEIRGLMKEAITPNSSQTPFSQTGVQTALMMKTDDGLYINLHEAALVDYSCMHLNLDDKNMVFESWLTPDAKGDKGYMQTPCNTPWRTIIVSDDARNILASRITLNLNEPCKIADAASWVKPVKYIGVWWDMITGKGSWAYTDELTSVKLGETDYSKTKPNGKHSANTANVKRYIDFAAAHGFDAVLVEGWNEGWEDWFGNSKDYVFDFVTPYPDFDVKEIHRYAARKGIKMMMHHETSASVRNYERHMDKAYQFMADNGYNSVKSGYVGNIIPRGEHHYGQWMNNHYLYAVKKAADYKIMVNAHEATRPTGICRTYPNLIGNESARGTEYESFGGNKVYHTTILPFTRLVGGPMDYTPGIFETHCNKMNPANNSQVRSTIARQLALYVTMYSPLQMAADIPENYERFMDAFQFIKDVALDWDETNYLEAEPGEYITIARKAKDTDDWYVGCTAGENGHTSKLVFDFLTPGKQYIATVYADAKDADWKENPQAYTIKKGILTNKSKLNLHAANGGGYAISIKEVKDKSEAKGLKRL”, for which the “soluble on expression in E. coli” value was “soluble”.

In the case of “KVQKIIVSEAGASVYSASELAAKEFPNMDVSLRGAVSIARRLQDPLAELVKIDPKSIGVGQYQHDVSQSMLVKRLDAIVEDCVNAVGVDVNTASAALLTRVAGLSSTIAQNIVDFRDENGRFEARTTLKKVPRLGPKAFEQCAGFLRIMDGKNPLDASAVHPEAYPVVKAIAEKNRKDIKALIGDSTFLKGLHAVDYTDEHFG”, the “soluble on expression in E. coli” value was “not soluble”.

As for “MGSDKIHHHHHHMKITLHGVAETLLITLYIRAKDAMAKHPILNDQKSLAIVEQIEYDFDKFDNSEASFYATLARIRVMDREIKKFIRENPNSQILSIGCGLDTRFERVDNGQIRWYNLDLPEVMEIRKLFFEEHERVTNIAKSALDETWTREVNPQNAPFLIVSEGVLMFLKEDDVETFLHILTNSFSQFMAQFDLCHKEMINKGKQHDTVKYMDTEFQFGITDGHEIVDLDPKLKQINLINFTDEMSKFELGTLRSLLPTIRKFNNCLGVYEYKASEKK”, the “soluble on expression in E. coli” value is recorded as “not soluble”.

On to “MIELIDPISKQRLEESPEGLRNENGIVVYPLINGAYRVAASDNYTSNFGLEWNTFQKTQIDKFSGNTVSEERLFAQTNWQKNGLEGETILEVGSGAGRFSQIMLDHTKATLYSVDYSEAVEANYRNNGPHERFKLFQASIYELPFKQASFDRVICLGVLQHTPDFKASVKALVEMVKPGGELVIDFYPIRNVFTKVHGKYLLRPILKRVNHHRLMSLIRNNIDFLISIYTFNRRIGLGVFNRFVPICEIERTLPKGMTPEQLKEWIILDTFDMFSPEYDQPQRLSTVAKWVKEFGMADVDASWVTYHGKLEAPTVRGRKVLEHHHHHH”, for which the “soluble on expression in E. coli” value was “soluble”.

Consider “MDTGNNNNLPTLLKCNFPPYGKDYPGGFATGRFSDGRVPSDLIAEKLGLAKTLPAYMNPYLKPEDLLKGVTFASGGTGYDPLTAKIMSVISVWDQLINFKEYISKIKRHFGEEKAKDILEHSFFLVVSSSNDLAHTYLAQTHRYDRTSYANFLADSAVHFVRELHKLGARKIGVFSAVPVGCVPLQRTVFGDKELDGVILYINVYDTLFDMIQHPKKYGFEVADRGCCGKGLLAISYLCNSLNPFTCSNSSAYIFWDSYHPSERAYQVIVDNLLDKYLSKVY”, for which the “soluble on expression in E. coli” value is given as “soluble”.

As to “MGSDKIHHHHHHMERSDAAMQPDAVSRPEIVMATRGITMLFPGTKALDNVDYNVYRGKVNVIIGENGAGKSTLMKILAGVQQPTSGQILLNGEAVRIADTRDAAAKGIGMVHQELNLSENLSVAENIFLGRELQKGVAPIDYLEQERIAAELMSRLDQAISPRTEVASLKVGQQQLVEIAKALADQADILILDEPTSALSKTEVEILFRVIRELTRQNVSIIYISHRLEELMAIGDYITILRDGCFQAEAAVSDIDVPWIVREMLGGDPVTSFLHSGRTFGAPILEAEHLTCLNDAGHQVVNDVSLMVREGEIVGIYGLMGAGRTELFECLLGIQNDYLGKIYLDSKPVSPRLSTAQRIRMGMSLVPEDRKKTGIFPLSSVASNLTIASLWRRLKYGMAIFQRQEQEVVASTVGRLAIKVSSPEVEIQALSGGNQQKVVIGRSLLTSPKVLLLDEPTRGIDVGAKADVFEMMVGLSEQGIGVLFSTSDLKEIMAVSDRILVMSNGKLTANIVRQSASESALVSASAQGF”, the “soluble on expression in E. coli” value was “not soluble”.

Take “MKTSETTRPTLSSLPVGKRAEEGTPHNLFTVIGLDDSPSPYLSPSVKALIDQGCVFSGGVRHHDIVAPLLPAGAKWIDITVPLDQVFARYAGHPHIIVFASGDPIFFGFANTIRRRLPDAEIRLYPSFNSLQTLAHRLVMPYDDMRTISLTGRPWHGFDRALIERTPKMGILTDREHTPATIASRMLDYGYNDYTMYIGEHLGHPTKELIRRMTLEEAAAETFEYPNCLILTTGDGLQSVNGGILSPRFFGIPDEAFELLDGRARMITKAPIRLLTLSALELNRRTSFWDIGFCTGSVSIEARLQFPHLHVTSFEIRPEGKRLMEINSRRFGTPGITTVIGDFLETDTAIYPCPDAVFIGGHGGRLKEIISRVRHKLLPGARIVFNSVSEESKTHFIEAANESGLCFLGGTRVAINEYNPIEILVASAPDSPYL”: the “soluble on expression in E. coli” value is “not soluble”.

In the case of “MFTKSHLALVIGAVLAAPAVANVQTDEHLVVEGREFGYKADTNSTAMRMEMTQLETPGQVAVIDETVIDEQRASTLGEVLRNDASVSAGGTSRNRERFSLRGFELSSSDGFLRDGRQHWSHYRQPIEL”, the “soluble on expression in E. coli” value was “not soluble”.

Regarding “MGSDKIHHHHHHVTSVSLGMPSAPPPVLAPRRKTRQIKVGSVGVGSDSPISVQSMTTTPTTDINATLQQIAELTASGCDIVRVACPSADDAEALPIIARKSQIPVIADIHFQPKYVFAAIEAGCAAVRVNPGNIRKFDDQVKEIARAAKDHGTSIRIGVNAGSLEPGILKKYGKATPEALVESAVWEASLFEEHGFHDFKISVKHNDPVIMVAAYEMLAEKGDWPLHLGVTEAGPAFQGTIKSATAFGALLSRGIGDTIRVSLSAPPVEEIKVGNQILQSLNLRPRKLEIVSCPSCGRAQVDVYTLAEQVTAGLEGMEIPLRVAVMGCVVNGPGEAREADLGVASGNGKGQIFVKGEVIKTVPESEIVETLIEEAMRIAEEMGEADGEDAVKGSPVVSVS”, the “soluble on expression in E. coli” value is given as “not soluble”.

As for “MADPWQECMDYAVTLAGQAGEVVREALKNEMNIMVKSSPADLVTATDQKVEKMLITSIKEKYPSHSFIGEESVAAGEKSILTDNPTWIIDPIDGTTNFVHGFPFVAVSIGFVVNKKMEFGIVYSCLEDKMYTGRKGKGAFCNGQKLQVSHQEDITKSLLVTELGSSRTPETVRIILSNIERLLCLPIHGIRGVGTAALNMCLVAAGAADAYYEMGIHCWDVAGAGIIVTEAGGVLLDVTGGPFDLMSRRVIASSNKTLAERIAKEIQIIPLQRDDED”, the “soluble on expression in E. coli” value is “soluble”.

As to “MSLKRVMTLADIALLANVSKSTASRALRNNPLINKNTRELVQEIALKHNFKVNATASNLRTQKTNTIAVVVMFDQKSGQAISDPFLMEILGTIADELTHFGYDMLLTTTKTATHDWYSYYYESKRADGLIIIGQGEHDQRIEALISTDLPFIVWGTEIHEKNYTTVGSDNRKGGYLAVSHLIEQGCQRIAFLGDINHTEVEQRWLGYQDAVAEAGLVVEDKLQIKTDFTSVDGYQSLRDHCLNDDVPIDGVFAVSDAIALGATKYLFEQNITIPKQVAVIGFDDISMSEYCSPSLSTIRQNTAAGGRLLVKLMLDKLNHLPVDSQLLNVEMIQRQSSEGHHHHHH”, the “soluble on expression in E. coli” value was “soluble”.

Take “MKKVKSIGLIETLGMVGVVEAADAALKAANVTLLGYEFNGAGYMVIKLTGDVAAVKAAVSSGAATAQKLGNLVAAHVIPRPDDQVIDTEICGKDNVPPFNGSDSEPEDGKPSGSSSEKESKESTETAVKASEPKPATATADKEEAPLEKAAPEAKDAKDTKEAPAKQASKPEAKTKSSKPTASEAKNASSPKTPEKQADSGKTAPAKTDGGNKPKSRK”: the “soluble on expression in E. coli” value was “not soluble”.

As to “MEQLTKCEVFRELKDLKGYGGVSLPEWVCTTFHTSGYDTQAIVQNNDSTEYGLFQINNKIWCKDDQNPHSSNICNISCDKFLDDDLTDDIVCVKKILDKVGINYWLAHKALCSEKLDQWLCEKL”, the “soluble on expression in E. coli” value is listed as “soluble”.

For the sequence “LDLNNPQYNDVYEINYDFIYSLRNIMDYVVRGDEWALDDYYEALDIRNDDLRWVLSDVQYRRFLGAEYFYRPIYVTGGRWNFRIYINYPNRSLFYFGVPYHYRTYCGAHYRPHIHHVSYYRGRYNNLVHYPTPYRVRDQRVFHSYRRSDFGSVRFRPNTSVRPHNAPTRPGTSGRPGTTSR”, the “soluble on expression in E. coli” value is “not soluble”.

Turning to “MTIEKIFTPQDDAFYAVITHAAGPQGALPLTPQMLMESPSGNLFGMTQNAGMGWDANKLTGKEVLIIGTQGGIRAGDGRPIALGYHTGHWEIGMQMQAAAKEITRNGGIPFAAFVSDPCDGRSQGTHGMFDSLPYRNDAAIVFRRLIRSLPTRRAVIGVATCDKGLPATMIALAAMHDLPTILVPGGATLPPTVGEDAGKVQTIGARFANHELSLQEAAELGCRACASPGGGCQFLGTAGTSQVVAEALGLALPHSALAPSGQAVWLEIARQSARAVSELDSRGITTRDILSDKAIENAMVIHAAFGGSTNLLLHIPAIAHAAGCTIPDVEHWTRINRKVPRLVSVLPNGPDYHPTVRAFLAGGVPEVMLHLRDLGLLHLDAMTVTGQTVGENLEWWQASERRARFRQCLREQDGVEPDDVILPPEKAKAKGLTSTVCFPTGNIAPEGSVIKATAIDPSVVGEDGVYHHTGRVRVFVSEAQAIKAIKREEIVQGDIMVVIGGGPSGTGMEETYQLTSALKHISWGKTVSLITDARFSGVSTGACFGHVSPEALAGGPIGKLRDNDIIEIAVDRLTLTGSVNFIGTADNPLTPEEGARELARRQTHPDLHAHDFLPDDTRLWAALQSVSGGTWKGCIYDTDKIIEVINAGKKALGI”, the “soluble on expression in E. coli” value is listed as “not soluble”.
